Data from publication PMC9117670, “Structural basis for inhibition of the Cation-chloride cotransporter NKCC1 by the diuretic drug bumetanide” (Nature Communications, 2022).

B1: NKCC1iii (full-length human NKCC1 with K289N, A492E and L671C mutations) (natural protein, UniProt P55011 1-1212, looked up)
chain: MEPRPTAPSSGAPGLAGVGETPSAAALAAARVELPGTAVPSVPEDAAPASRDGGGVRDEGPAAAGDGLGRPLGPTPSQSRFQVDLVSENAGRAAAAAAAAAAAAAAAGAGAGAKQTPADGEASGESEPAKGSEEAKGRFRVNFVDPAASSSAEDSLSDAAGVGVDGPNVSFQNGGDTVLSEGSSLHSGGGGGSGHHQHYYYDTHTNTYYLRTFGHNTMDAVPRIDHYRHTAAQLGEKLLRPSLAELHDELEKEPFEDGFANGEESTPTRDAVVTYTAESKGVVKFGWINGVLVRCMLNIWGVMLFIRLSWIVGQAGIGLSVLVIMMATVVTTITGLSTSAIATNGFVRGGGAYYLISRSLGPEFGGAIGLIFAFANAVAVAMYVVGFAETVVELLKEHSILMIDEINDIRIIGAITVVILLGISVAGMEWEAKAQIVLLVILLLAIGDFVIGTFIPLESKKPKGFFGYKSEIFNENFGPDFREEETFFSVFEIFFPAATGILAGANISGDLADPQSAIPKGTLLAILITTLVYVGIAVSVGSCVVRDATGNVNDTIVTELTNCTSAACKLNFDFSSCESSPCSYGLMNNFQVMSMVSGFTPLISAGIFSATLSSALASLVSAPKIFQALCKDNIYPAFQMFAKGYGKNNEPLRGYILTFLIALGFILIAECNVIAPIISNFFLASYALINFSVFHASLAKSPGWRPAFKYYNMWISLLGAILCCIVMFVINWWAALLTYVIVLGLYIYVTYKKPDVNWGSSTQALTYLNALQHSIRLSGVEDHVKNFRPQCLVMTGAPNSRPALLHLVHDFTKNVGLMICGHVHMGPRRQAMKEMSIDQAKYQRWLIKNKMKAFYAPVHADDLREGAQYLMQAAGLGRMKPNTLVLGFKKDWLQADMRDVDMYINLFHDAFDIQYGVVVIRLKEGLDISHLQGQEELLSSQEKSPGTKDVVVSVEYSKKSDLDTSKPLSEKPITHKVEEEDGKTATQPLLKKESKGPIVPLNVADQKLLEASTQFQKKQGKNTIDVWWLFDDGGLTLLIPYLLTTKKKWKDCKIRVFIGGKINRIDHDRRAMATLLSKFRIDFSDIMVLGDINTKPKKENIIAFEEIIEPYRLHEDDKEQDIADKMKEDEPWRITDNELELYKTKTYRQIRLNELLKEHSSTANIIVMSLPVARKGAVSSALYMAWLEALSKDLPPILLVRGNHQSVLTFYS
notes: Human Na-K-2Cl cotransporter NKCC1, full length, with K289N, A492E and L671C; MBP followed by a TEV site was fused immediately before the N-terminus and removed with TEV protease before size exclusion and cryo-EM; Residues 927-1021 are not defined in the model; also called Lys289Asn/Ala492Glu/Leu671Cys NKCC1 transporter; NKCCiii; source: HEK293S GnTI-/- cells (BacMam system), purified (amylose …)
B2: NKCC1ii (full-length human NKCC1 with K289N and A492E mutations) (natural protein, UniProt P55011 1-1212, looked up)
chain: MEPRPTAPSSGAPGLAGVGETPSAAALAAARVELPGTAVPSVPEDAAPASRDGGGVRDEGPAAAGDGLGRPLGPTPSQSRFQVDLVSENAGRAAAAAAAAAAAAAAAGAGAGAKQTPADGEASGESEPAKGSEEAKGRFRVNFVDPAASSSAEDSLSDAAGVGVDGPNVSFQNGGDTVLSEGSSLHSGGGGGSGHHQHYYYDTHTNTYYLRTFGHNTMDAVPRIDHYRHTAAQLGEKLLRPSLAELHDELEKEPFEDGFANGEESTPTRDAVVTYTAESKGVVKFGWINGVLVRCMLNIWGVMLFIRLSWIVGQAGIGLSVLVIMMATVVTTITGLSTSAIATNGFVRGGGAYYLISRSLGPEFGGAIGLIFAFANAVAVAMYVVGFAETVVELLKEHSILMIDEINDIRIIGAITVVILLGISVAGMEWEAKAQIVLLVILLLAIGDFVIGTFIPLESKKPKGFFGYKSEIFNENFGPDFREEETFFSVFEIFFPAATGILAGANISGDLADPQSAIPKGTLLAILITTLVYVGIAVSVGSCVVRDATGNVNDTIVTELTNCTSAACKLNFDFSSCESSPCSYGLMNNFQVMSMVSGFTPLISAGIFSATLSSALASLVSAPKIFQALCKDNIYPAFQMFAKGYGKNNEPLRGYILTFLIALGFILIAELNVIAPIISNFFLASYALINFSVFHASLAKSPGWRPAFKYYNMWISLLGAILCCIVMFVINWWAALLTYVIVLGLYIYVTYKKPDVNWGSSTQALTYLNALQHSIRLSGVEDHVKNFRPQCLVMTGAPNSRPALLHLVHDFTKNVGLMICGHVHMGPRRQAMKEMSIDQAKYQRWLIKNKMKAFYAPVHADDLREGAQYLMQAAGLGRMKPNTLVLGFKKDWLQADMRDVDMYINLFHDAFDIQYGVVVIRLKEGLDISHLQGQEELLSSQEKSPGTKDVVVSVEYSKKSDLDTSKPLSEKPITHKVEEEDGKTATQPLLKKESKGPIVPLNVADQKLLEASTQFQKKQGKNTIDVWWLFDDGGLTLLIPYLLTTKKKWKDCKIRVFIGGKINRIDHDRRAMATLLSKFRIDFSDIMVLGDINTKPKKENIIAFEEIIEPYRLHEDDKEQDIADKMKEDEPWRITDNELELYKTKTYRQIRLNELLKEHSSTANIIVMSLPVARKGAVSSALYMAWLEALSKDLPPILLVRGNHQSVLTFYS
notes: Human Na-K-2Cl cotransporter NKCC1, full length, with K289N and A492E; MBP followed by a TEV site was fused immediately before the N-terminus and removed with TEV protease before size exclusion and cryo-EM; also called NKCCii; source: HEK293S GnTI-/- cells (BacMam system), purified (amylose resin, TEV protease, Superose 6) in digitonin; not shown: MBP, N-terminal, cleaved

Target: the molecule itself
Assay: cryo-EM structure; single-particle cryo-EM with bumetanide; low [Cl-] buffer: 20 mM HEPES pH 7.4, 50 mM Na2SO4, 25 mM K2SO4, 5 mM NaCl, 0.06% digitonin, bumetanide to 500 uM

Row | Protein | stoichiometry N
1 | B1 | 2
2 | B2 | 2
